According to the RNAGym collection of RNA variant scans (doi:10.7554/elife.80360):

B1: Hairpin Ribozyme (parent)
chain: GUCCUCUUUCACGUGCGCGUGAAAGAGAGAAGUGAACCAGAGAAACACACGUUGUGGUAUAUUACCUGGUA

Variants of: B1
Experiment: self-cleavage, relative activity (ratio to wild type); higher = more cleavage; co-transcriptional

Variant	self-cleavage
A24G A28G	0.882
A22G G54U	0.423
A24C U62C	0.297
A24C U62A	0.3
A22U G51C	0.607
A22U G51U	0.761
A23C U33A	0.109
A22G A64G	0.565
A23G U70A	0.741
A24C G68U	0.223
A24C G68C	0.255
A22U U52G	0.883
A22U U52C	0.631
A22G C65G	0.249
A23G A41G	0.678
A23G U58C	0.847
A22G G29U	0.0873
A22G G29A	0.121
A22U A43U	0.136
A22U A43C	0.178
A23U C50U	0.376
A23C G34A	1.1
A23C G34C	1.26
A23C G34U	1.14

Variant	self-cleavage
A23C U58G	0.674
A22C G27A	0.272
A23G A71U	0.634
A23G A71G	0.975
A23C C65G	0.186
A22U C66U	0.482
A23G A49C	0.159
A23G A49G	0.426
A24C A47U	0.0898
A23U A64U	0.178
A23U A64G	0.474
A23U A64C	0.221
A22C G56C	0.243
A22C G56U	0.148
A23G A39G	0.353
A23G A39U	0.252
A23G A39C	0.408
A22G C50U	0.362
A22G C50G	0.42
A23U G40C	0.1
A23U G40U	0.134
A23U C37A	0.324
A23C A59U	0.174
A22G G57U	0.305

Variant	self-cleavage
A22G G57A	0.17
A23U A24C	1.02
A23U C46A	0.224
A23U C46G	0.0441
A22U A31C	0.0317
A22U U67G	0.295
A23U A49C	0.117
A22C U52C	1.09
A22C U52G	0.726
A24C A59C	0.209
A24C A31G	0.66
A22G C46G	0.208
A22G C46U	0.0765
A22C U67A	0.195
A22C U67C	0.196
A24G A31G	0.662
A23G G56A	0.186
A23U G27C	0.148
A23U G29U	0.142
A22C U53A	0.81
A22C U53G	0.822
A22C U53C	1.03
A22U G69A	0.42
A22G A49U	0.126

Variant	self-cleavage
A22U G56A	0.147
A22G C48U	0.149
A24C U33G	0.152
A23C C37G	0.159
A24C U53A	1.08
A24C U53C	0.735
A23C G56U	0.1
A24C U58G	0.761
A24C U58A	0.265
A23U A36C	0.596
A22C G42U	0.239
A22C G42A	0.146
A23G G25C	0.521
A24C A64G	0.503
A22G A39G	0.298
A24G A61C	0.203
A23C G69A	0.379
A23C G69C	0.244
A23C U62A	0.229
A22G C38A	0.147
A23U U55G	0.448
A23U U55A	0.255
A23C G68A	0.26
A22U A64U	0.14

Variant	self-cleavage
A22U A64G	0.474
A23C A49C	0.136
A23G C65G	0.392
A22G G25U	0.595
A22G G25A	0.623
A22G A35U	0.715
A22G A35G	0.905
A23U G32C	0.231
A23U A39U	0.385
A23U A39G	0.298
A23G A24C	0.648
A23G A24U	0.651
A23U A61U	0.0982
A22G G42U	0.288
A22G G42C	0.365
A22C U55G	0.173
A22C U55C	0.247
A22U U33C	0.235
A24C A61U	0.189
A24C A61C	0.139
A24C A61G	0.156
A22U A59C	0.17
A23G U60A	0.694
A22G U55C	0.294

Variant	self-cleavage
A23C G57C	0.192
A23C G57U	0.29
A24C A35C	0.778
A23C U52A	0.875
A23C U55G	0.359
A23C U55A	0.17
A23C C48G	0.0948
A23C C48A	0.0725
A23C C48U	0.202
A22C U63G	0.109
A22C C65A	0.64
A22C C65G	0.116
A22C C65U	0.303
A24G A30C	0.119
A24G A30U	0.124
A24C U55G	0.266
A23U C66A	0.294
A22G U58G	0.528
A22G U58C	0.954
A23G A26U	0.842
A22G A44C	0.136
A23C A43G	0.0715
A23C A43C	0.146
A24G A39U	0.473

Variant	self-cleavage
A23C A31G	0.696
A24C G29A	0.0206
A24C G29U	0.0732
A24C G29C	0.208
A23G A61U	0.138
A23G A43G	0.0591
A23G A43U	0.184
A22G U63G	0.171
A22G U63A	0.22
A24G A64G	0.533
A24C A44C	0.0908
A22U G54C	0.333
A22U G54A	0.335
A22U G54U	0.518
A23G G34U	1.29
A22C U70C	0.892
A22C U70A	0.862
A23G A59G	0.184
A23C U67G	0.27
A23G U63C	0.148
A22U A30C	0.223
A22G A23C	0.915
A22G A23U	0.59
